Source: the supplement of paper PMC7125110
± gives the standard error. Variants at the floor of the assay were thinned out.

B1: glmS ribozyme (parent)
chain: AUAAAAGCGCCAGAACUACAGAAAUGUAGUUGACGAGGAGGAGGUUUAUCGAAUUUUCGGCGGAUGCCUCCAAA

Tests used:
Details in all cases: with glucosamine-6-phosphate
[1] = variants of: B1; assay: self-cleavage kobs at 640 uM GlcN6P; higher = faster cleavage; RNA array
How it was run: (§1)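 Weighted Michaelis–Menten fits across concentrations supplied kcat and KM, based on kobs from one- or two-exponential decay fits to normalised per-tile medians. The data came from barcoded ribozyme variants transcribed in situ by E. coli RNA polymerase on sequenced MiSeq chips and tracked at 37 °C by a hybridised Cy3 probe. Glucosamine-6-phosphate (40 μM to 10 mM) in HEPES/KCl/Mg(OAc)2 buffer was flowed in.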

[2] = variants of: B1; assay: self-cleavage kobs at 2500 uM GlcN6P; higher = faster cleavage; RNA array
How it was run: as §1

[3] = variants of: B1; assay: self-cleavage kobs at 10000 uM GlcN6P; higher = faster cleavage; RNA array
How it was run: as §1

| Variant | self-cleavage kobs at 640 uM GlcN6P [1] | self-cleavage kobs at 2500 uM GlcN6P [2] | self-cleavage kobs at 10000 uM GlcN6P [3] |
| --- | --- | --- | --- |
| G13U A39U A48U G51A U55G C70A | < 1e-05 s⁻¹ |  |  |
| G13C U56A C58G C71U | 3.8e-05 ± 1.2e-05 s⁻¹ | 6.28e-05 ± 1.9e-05 s⁻¹ |  |
| A15C A33U G40A | < 1e-05 s⁻¹ |  |  |
| A12U A42G C70G | 0.000705 ± 0.00032 s⁻¹ | 0.00109 ± 0.00041 s⁻¹ |  |
| C16G G41C G62A A64G | < 1e-05 s⁻¹ | < 1e-05 s⁻¹ |  |
| A12C A52U C71U | 4.93e-05 ± 1.4e-05 s⁻¹ | 0.000116 ± 2.4e-05 s⁻¹ |  |
| U31A A36U A48U U69C | < 1e-05 s⁻¹ |  |  |
| G29C A42C A48C | < 1e-05 s⁻¹ |  |  |
| A14C C58G C67U | 5.66e-05 ± 2.2e-05 s⁻¹ | 5.98e-05 ± 1.9e-05 s⁻¹ |  |
| G29U G35C A52G | < 1e-05 s⁻¹ | < 1e-05 s⁻¹ |  |
| A12C G40A U65A | 9.15e-05 ± 1.3e-05 s⁻¹ | 0.000293 ± 5.4e-05 s⁻¹ |  |
| C11G G29C A52G U55A C58A | < 1e-05 s⁻¹ | < 1e-05 s⁻¹ | < 1e-05 s⁻¹ |
| A14U A15U G29C C67U C70G | 0.00266 ± 0.001 s⁻¹ |  |  |
| G32C G40C U57G | < 1e-05 s⁻¹ |  |  |
| G32C G35U G59A | < 1e-05 s⁻¹ | < 1e-05 s⁻¹ |  |
| A14U A15C A33C C61G U65G | < 1e-05 s⁻¹ | < 1e-05 s⁻¹ |  |

| Variant | self-cleavage kobs at 640 uM GlcN6P [1] | self-cleavage kobs at 2500 uM GlcN6P [2] | self-cleavage kobs at 10000 uM GlcN6P [3] |
| --- | --- | --- | --- |
| G13U G51C G62C | < 1e-05 s⁻¹ |  |  |
| A14C G32C C71U | 7.58e-05 ± 2.5e-05 s⁻¹ | 0.000118 ± 2.6e-05 s⁻¹ | 0.000332 ± 7.4e-05 s⁻¹ |
| U31G U45C A53G | 0.000175 ± 3.2e-05 s⁻¹ | 0.000528 ± 9.1e-05 s⁻¹ |  |
| A33C U47G | 8.08e-05 ± 3e-05 s⁻¹ |  | 6.4e-05 ± 1.3e-05 s⁻¹ |
| U30A A33G U57C | < 1e-05 s⁻¹ |  |  |
| G29C G44C C67G | 0.000127 ± 3.8e-05 s⁻¹ | 0.000256 ± 0.00011 s⁻¹ |  |
| G13C G43U C58G | < 1e-05 s⁻¹ | < 1e-05 s⁻¹ | < 1e-05 s⁻¹ |
| U30C U46G C70U | 4.5e-05 ± 2e-05 s⁻¹ |  |  |
| U31A A33U A48G | < 1e-05 s⁻¹ | < 1e-05 s⁻¹ |  |
| G32A U57A C70G | 0.000649 ± 0.00023 s⁻¹ |  |  |
| C16G G35C A48G U57C G62A C67A U69A | < 1e-05 s⁻¹ | < 1e-05 s⁻¹ | < 1e-05 s⁻¹ |
| U31C G60U C67G | < 1e-05 s⁻¹ | < 1e-05 s⁻¹ |  |
| G32A A36G A39C G41U G43U | < 1e-05 s⁻¹ |  |  |
| A14C U65A C70U | 0.000125 ± 3.2e-05 s⁻¹ |  |  |
| A14G G29U G38C U56C | < 1e-05 s⁻¹ |  |  |
